In test [1] the target is human coxsackie-adenovirus receptor (CAR) stably expressed on CHO-hCAR cells (human) (UniProt P78310).
For test [2] the target is unchanged. Kind of test: cell-based or functional assay.
Test [3] concerns the target T1, human coxsackie-adenovirus receptor (CAR) stably expressed on CHO-hCAR cells (human, UniProt P78310 20-365).
T1 sequence: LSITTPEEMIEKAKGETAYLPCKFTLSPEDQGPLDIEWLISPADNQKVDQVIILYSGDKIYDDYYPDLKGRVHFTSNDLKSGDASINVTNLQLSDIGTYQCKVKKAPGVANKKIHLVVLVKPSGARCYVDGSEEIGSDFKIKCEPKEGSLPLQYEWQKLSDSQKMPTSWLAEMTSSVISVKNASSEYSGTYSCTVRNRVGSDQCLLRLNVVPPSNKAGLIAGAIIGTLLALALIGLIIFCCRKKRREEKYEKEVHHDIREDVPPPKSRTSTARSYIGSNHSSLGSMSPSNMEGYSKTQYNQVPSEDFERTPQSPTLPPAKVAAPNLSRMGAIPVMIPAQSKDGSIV
Kind of test: cell-based or functional assay.

A value given as a limit tells only on which side of the number the result lay.

Regarding “recombinant HAdV-5 fiber knob protein (from UniProt P11818 387-581)”, the IC50 (read off the curve); inhibition of luciferase gene transfer of Ad5Luc1 into CHO-hCAR cells in test [1] turned out to be 1 µg/mL. In addition, the inhibition of Ad5Luc1 gene transfer to CHO-hCAR cells by knob protein at 50 µg/ml in test [2] is more than 96%.

B1: Ad5Luc1 control vector containing the HAdV-5 wild type fiber (other)
chain: MKRARPSEDTFNPVYPYDTETGPPTVPFLTPPFVSPNGFQESPPGVLSLRLSEPLVTSNGMLALKMGNGLSLDEAGNLTSQNVTTVSPPLKKTKSNINLEISAPLTVTSEALTVAAAAPLMVAGNTLTMQSQAPLTVHDSKLSIATQGPLTVSEGKLALQTSGPLTTTDSSTLTITASPPLTTATGSLGIDLKEPIYTQNGKLGLKYGAPLHVTDDLNTLTVATGPGVTINNTSLQTKVTGALGFDSQGNMQLNVAGGLRIDSQNRRLILDVSYPFDAQNQLNLRLGQGPLFINSAHNLDINYNKGLYLFTASNNSKKLEVNLSTAKGLMFDATAIAINAGDGLEFGSPNAPNTNPLKTKIGHGLEFDSNKAMVPKLGTGLSFDSTGAITVGNKNNDKLTLWTTPAPSPNCRLNAEKDAKLTLVLTKCGSQILATVSVLAVKGSLAPISGTVQSAHLIIRFDENGVLLNNSFLDPEYWNFRNGDLTEGTAYTNAVGFMPNLSAYPKSHGKTAKSNIVSQVYLNGDKTKPVTLTITLNGTQETGDTTPSAYSMSFSWDWSGHNYINEIFATSSYTFSYIAQE
Regarding B1, in test [3], the “luciferase activity in CHO-hCAR cells versus CHO cells (gene transfer assay)” value was found to be 80 fold.

These data come from patent US20150017195A1 (WASHINGTON UNIVERSITY, published 2015).
